From publication PMC5222517

Assays:
[1] = target: HIV-1 Env (HXB2 strain) homotrimer with N656D in gp41 (HIV-1 (HXB2 strain))
[2] = target: HIV-1 Env (HXB2 strain) homotrimer with Q552R/N637K in gp41 (HIV-1 (HXB2 strain))
[3] = target: HIV-1 Env (HXB2 strain) homotrimer with L544S in gp41 (HIV-1 (HXB2 strain))
[4] = target: HIV-1 Env (HXB2 strain) homotrimer with V549A in gp41 (HIV-1 (HXB2 strain))

5-Helix, mutant version with L556A/V570A in all three N-HR segments (from UniProt P04578 543-582; P04578 625-661; P04578 543-582; P04578 625-661; P04578 543-582) (designed binder)
fold resistance to 5H (LAVA) in inhibition of infection by pseudotyped HIV-1, N656D against wild type Env (HXB2) homotrimers [1]: > 100 fold

C-peptide C37-KYI (from UniProt P04578 625-661)
IC50.1 (high potency phase, fraction f = 0.31) of C37-KYI inhibition of infection by pseudotyped HIV-1, two-site inhibition model (HOS-CXCR4+ cells) [2]: 8 nM
IC50.2 (low potency phase, fraction 1 - f) of C37-KYI inhibition of infection by pseudotyped HIV-1, two-site inhibition model (HOS-CXCR4+ cells) [2]: 180 nM

C-peptide T20
fold resistance to T20 in inhibition of infection by pseudotyped HIV-1, L544S against wild type Env (HXB2) homotrimers (U87.CD4.CXCR4 cells) [3]: 30 fold
fold resistance to T20 in inhibition of infection by pseudotyped HIV-1, V549A against wild type Env (HXB2) homotrimers (U87.CD4.CXCR4 cells) [4]: 50 fold
